Measured values reported in patent US20050036942A1 (Genentech, published 2005).

Columns and labels:
[1] = biological target: gD-tagged human PSCA expressed on transfected cells (Herpes Simplex virus; human, UniProt O43653 12-91)
murine PSCA (mPSCA) = biological target: T1, murine PSCA (mPSCA) (murine, UniProt P57096 21-95); test: direct ELISA, antigen coated at 1 µg/ml
T1 construct: also called muPSCA; his Mu PSCA - E. coli
T1 sequence (looked up): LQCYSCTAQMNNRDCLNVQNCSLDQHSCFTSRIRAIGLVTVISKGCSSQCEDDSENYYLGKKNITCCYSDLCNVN

B1: anti-PSCA monoclonal antibody 5F2.4H4.1E3 (antibody, V domains shown)
VH: QVQVQQPGAELVKPGAPVKLSCKASGYTFTNYWLNWVKQRPGRGLEWIGRIDPSDSEIHYDQKFKDKATLTVDKSSSTAYIQLSSLTSEDSAVYYCALTGIYAMAYWGQGTSVTVSS
VL: DIVMTQAAPSVPVTPGESVSISCRSSKSLLHSNGNTYLYWFLQRPGQSPQLLIYRMSNLASGVPDRFSGSGSGTAFTLRISRVEAEDVGVYYCLQHLEYPYTFGGGTKLELKR
In the case of B1, the IC50 [1] is reported as 13 nM.

B2: anti-PSCA monoclonal antibody 6B8.1D7.2B3 (antibody, V domains shown)
VH: EVQLQQSGPDLEKPGASVKISCKPSGNSFTGYYIHWVKQSHGKSLEWIGRVDPNNGFTSYNQKFKGKAILTVDKSSSTAYMELRSLTSEDSAVYYCVGNFFDSWGQGTTLTVSS
VL: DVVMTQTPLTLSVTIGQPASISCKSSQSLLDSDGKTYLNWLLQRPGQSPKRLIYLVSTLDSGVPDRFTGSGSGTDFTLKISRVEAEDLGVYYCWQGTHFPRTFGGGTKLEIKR
notes: also called Asc# 2761; #2761
B2: no binding (murine PSCA (mPSCA)).
